Results from article PMC3040262.

Biological target: PP1α_(7-330), His6-tag removed by TEV protease, P62136
Experiment: SEC

PP1α_(7-330), His6-tag removed by TEV protease, P62136, sequence (P62136 7-330): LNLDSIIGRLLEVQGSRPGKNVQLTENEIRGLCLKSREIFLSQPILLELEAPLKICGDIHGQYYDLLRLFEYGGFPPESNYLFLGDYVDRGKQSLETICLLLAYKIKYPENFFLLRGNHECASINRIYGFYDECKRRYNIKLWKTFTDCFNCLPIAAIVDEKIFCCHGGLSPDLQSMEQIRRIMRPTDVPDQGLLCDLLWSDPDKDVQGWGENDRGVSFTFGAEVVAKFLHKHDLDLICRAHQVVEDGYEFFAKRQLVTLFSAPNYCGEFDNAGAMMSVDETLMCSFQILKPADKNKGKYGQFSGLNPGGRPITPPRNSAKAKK

B1: I-2_(9-164) C85S (domain or fragment)
chain: PIKGILKNKTSTTSSMVASAEQPRGNVDEELSKKSQKWDEMNILATYHPADKDYGLMKIDEPSTPYHSMMGDDEDASSDTEATEAMAPDILARKLAAAEGLEPKYRIQEQESSGEEDSDLSPEEREKKRQFEMKRKLHYNEGLNIKLARQLISKDL
modifications: not checked
  stoichiometry N: 1
